According to patent publication US6132722A, “Recombinant antibody-enzyme fusion proteins” (Bristol-Myers Squibb Company, priority 1998, dated 2000):

Assays:
[1] = Clearance of conjugate from the blood of nude mice; format: in vivo
Method: FIGS. 9A and 9B depict pharmacokinetics of L49-sFv-bL in nude mice (3 animals/group). L49-sFv-bL was injected intravenously, tissues were removed and extracted at the indicated times, and the β-lactamase activity was determined using nitrocefin as a substrate. FIG. 9A depicts clearance of L49-sFv-bL from the blood. Injected dose was 4 mg/kg. FIG. 9B depicts L49-sFv-bL levels in subcutaneous 3677 melanoma tumors and in normal tissues. Injected dose was 1 mg/kg.
(§1) Conjugate Localization. Subcutaneous 3677 melanoma tumors were established in female athymic nu/nu mice (8-12 weeks old, Harlan Sprague-Dawley, Indianapolis, Ind.) by transplanting tumors that had been previously passaged as previously described (Kerr et al., Cancer Res., 55:3558-3563 (1995)). Tumor bearing mice were injected i.v. with L49-sFv-bL (1 or 4 mg mAb component/kg) or with L49-Fab'-bL (1.8 mg mAb component/kg). At various time intervals, the mice were anesthetized, bled through the orbital plexus, and sacrificed. Tissues were removed and homogenized in PBS containing 15 μg/ml aprotinin (2 mL/g tissue). To the homogenate was added 50 mM sodium phosphate containing 100 mM NaCl at pH 11.2 (10 ml/g tissue), and the suspension was mixed. After 20 min at room temperature, 3M sodium phosphate at pH 7.0 was added (2 ml/g tissue), and the mixture was mixed and centrifuged.
(§2) Quantification of conjugate concentrations was accomplished using a direct enzyme immunoassay. Polystyrene 96-well microtiter plates were coated with an affinity-purified rabbit polyclonal antisera to wild type E. cloacae bL (1 μg/ml), and were then blocked with specimen diluent (Genetic Systems Corp.). Serially diluted tissue extracts or purified samples (L49-sFv-bL as a standard for the fusion protein samples, L49-Fab'-bL as a standard for the L49-Fab'-bL samples) were added to the wells and allowed to bind for 3 h at room temperature. The plates were washed and developed by the addition of 0.1 ml of nitrocefin (O'Callaghan et al., Antimicrobial Agents and Chemotherapy, 1:283-288 (1972)) at 0.1 mM in PBS containing 1% dimethylformamide. Absorbance measurements were read in an ELISA plate reader using a 490 nm filter with 630 nm as the reference wavelength.
(§3) In Vivo Localization. Biodistribution studies of L49-sFv-bL and L49-Fab'-bL were carried out in nude mice bearing subcutaneous (s.c.) 3677 melanoma tumor xenografts. The conjugates were injected i.v., and at various time points tissues were removed and extracted under alkaline conditions to disrupt antigen-antibody interactions. The samples were then trapped a polyclonal antiserum to bL, and bL activity was measured using nitrocefin as a colorimetric indicator (O'Callaghan et al, Antimicrobial Agents and Chemotherapy, 1:283-288 (1972)).

[2] = Michaelis-Menten kinetic analysis of bL activity with nitrocefin as substrate; format: biochemical
Excerpt: Enzymatic activity assays of the bL portion of L49-sFv-bL were undertaken using nitrocefin as the enzyme substrate (Table 1). […] Thus, both the binding of the L49 antibody and enzymatic activity of the E. cloacae r2-1 bL were preserved in the fusion protein.

[3] = system: 3677 melanoma cells; test: In vitro cytotoxicity, [3H]thymidine incorporation; format: cell-based, human
Method: In Vitro Cytotoxicity. 3677 melanoma cells were plated into 96-well microliter plates (10^4 cells/well in 100 μL of Iscove's Modified Dulbecco's Medium (IMDM) with 10% fetal bovine serum, penicillin (60 μg/ml), and streptomycin (100 μg/ml) and allowed to adhere overnight. For blocking experiments, the cells were incubated with unconjugated L49 at 1 μM for 30 min. prior to treatment with the L49 conjugates. The cells were treated with L49-sFv-bL or L49 Fab'-bL at 10 nM. After 30 min. at 4° C., the plates were washed three times with antibiotic-free RPMI 1640 media (Gibco) with 10% fetal bovine serum, and then varying concentrations of CCM (FIG. 1) were added. CCM and PDM were also added to cells treated with media alone. After 1 h at 37° C., cells were washed three times with IMDM and incubated approximately 18 h at 37° C. The cells were then pulsed for 12 h with [^3 H] thymidine (1 μCi/well) at 37° C., detached by freezing at -20° C. and thawing, and harvested onto glass fiber filter mats using a 96-well harvester (Wallac, Gaithersburg, Md.). Radioactivity was counted using a LKB Wallac β-plate counter.
In Vitro Cytotoxicity. […] Radioactivity was counted using a LKB Wallac β-plate counter.
The cytotoxic effects of L49-sFv-bL in combination with CCM were determined on 3677 human melanoma cells, which express the p97 antigen. […]

[4] = Tissue distribution of immunoconjugates in nude mice bearing s.c. 3677 melanoma xenografts; format: in vivo
Method: as §1, §2, §3

B1: L49-sFv-bL: recombinant fusion protein: L49 anti-p97 single-chain Fv (VH-218 linker-VL) fused to r2-1 mutant E. cloacae β-lactamase, SEQ ID NO: 20 (protein)
chain: MKYLLPTAAAGLLLLAAQPAMAEVQLQESGPSLVKPSQTLSLTCSVTGDSITSGYWNWIRKFPGNKLEYMGYISDSGITYYNPSLKSRISITRDTSKNQYYLQLNFVTAEDTATYNCARRTLATYYAMDYWGQGTSVTVSSGSTSGSGKPGSGEGSTKGDFVMTQTPLSLPVSLGDQASISCRASQSLVHSNGNTYLHWYLQKPGQSPKLLIYRVSNRFSGVPDRFSGSGSGTDFTLKISRVEAEDLGVYFCSQSTHVPPTFGGGTKLEIKRTPVSEKQLAEVVANTITPLMKAQSVPGMAVAVIYQGKPHYYTFGKADIAANKPVTPQTLFELGSISKTFTGVLGGDAIARGEISLDDAVTRYWPQLTGKQWQGIRMLDLATYTAGGLPLQVPDEVTDNASLLRFYQNWQPQWKPGTTRLYANASIGLFGALAVKPSGMPYEQAMTTRVLKPLKLDHTWINVPKAEEAHYAWGYRDGKAVRVSPGMLDAQAYGVKTNVQDMANWVMANMAPENVADASLKQGIALAQSRYWRIGSMYQGLGWEMLNWPVEANTVVETSFGNVALAPLPVAEVNPPAPPVKASWVHKTGSTGGFGSYVAFIPEKQIGIVMLANTSYPNPARVEAAYHILEALQTSEFE
For B1, the “initial clearance half life t1/2 α” value ([1]; blood, i.v., 4 mg/kg) was 0.3 h, the “terminal clearance half life t1/2 β” value ([1]; blood, i.v., 4 mg/kg) was 2.5 h and the “clearance from the blood” value ([1]; i.v., nude mice) was “cleared very rapidly”. For the same molecule, the “reduction of blood levels” value ([1]; within 24 h of conjugate administration) was 10^4, the Km [2] was 19 µM and the “enzymatic activity relative to the mutant bL enzyme” value [2] was “retained the full enzymatic activity”. For the same molecule, the kcat [2] was 232 s⁻¹, the “cytotoxic activity of conjugate + CCM combination” value ([3]; conjugate 10 nM, washed, then CCM 1 h) was “equivalent in activity to PDM” and the “activation of CCM on cells previously saturated with L49 mAb” value ([3]; unconjugated L49 1 μM before the fusion protein) was “did not activate CCM”. The “tumor/tissue ratios Blood” value ([4]; 1 mg/kg i.v., 4 hrs) was 13, the “tumor/tissue ratios Kidney” value ([4]; 1 mg/kg i.v., 4 hrs) was 41 and the “tumor/tissue ratios Liver” value ([4]; 1 mg/kg i.v., 4 hrs) was 52. For the same molecule, the “tumor/tissue ratios Spleen” value ([4]; 1 mg/kg i.v., 4 hrs) was 79, the “tumor/tissue ratios Tumor” value ([4]; 1 mg/kg i.v., 4 hrs) was 1 and the “tumor/tissue ratios Blood” value ([4]; 1 mg/kg i.v., 12 hrs) was 66. For the same molecule, the “tumor/tissue ratios Kidney” value ([4]; 1 mg/kg i.v., 12 hrs) was greater than 177, the “tumor/tissue ratios Liver” value ([4]; 1 mg/kg i.v., 12 hrs) was greater than 177 and the “tumor/tissue ratios Spleen” value ([4]; 1 mg/kg i.v., 12 hrs) was greater than 177. For the same molecule, the “tumor/tissue ratios Tumor” value ([4]; 1 mg/kg i.v., 12 hrs) was 1, the “tumor/tissue ratios Blood” value ([4]; 1 mg/kg i.v., 24 hrs) was 105 and the “tumor/tissue ratios Kidney” value ([4]; 1 mg/kg i.v., 24 hrs) was greater than 70. For the same molecule, the “tumor/tissue ratios Liver” value ([4]; 1 mg/kg i.v., 24 hrs) was greater than 70, the “tumor/tissue ratios Spleen” value ([4]; 1 mg/kg i.v., 24 hrs) was greater than 70 and the “tumor/tissue ratios Tumor” value ([4]; 1 mg/kg i.v., 24 hrs) was 1. The “tumor/tissue ratios Blood” value ([4]; 4 mg/kg i.v., 12 hrs) was 81, the “tumor/tissue ratios Kidney” value ([4]; 4 mg/kg i.v., 12 hrs) was greater than 240 and the “tumor/tissue ratios Liver” value ([4]; 4 mg/kg i.v., 12 hrs) was greater than 240. The “tumor/tissue ratios Spleen” value ([4]; 4 mg/kg i.v., 12 hrs) was greater than 240, the “tumor/tissue ratios Tumor” value ([4]; 4 mg/kg i.v., 12 hrs) was 1 and the “tumor/tissue ratios Blood” value ([4]; 4 mg/kg i.v., 24 hrs) was 141. For the same molecule, the “tumor/tissue ratios Kidney” value ([4]; 4 mg/kg i.v., 24 hrs) was greater than 290, the “tumor/tissue ratios Liver” value ([4]; 4 mg/kg i.v., 24 hrs) was greater than 290 and the “tumor/tissue ratios Spleen” value ([4]; 4 mg/kg i.v., 24 hrs) was greater than 290. The “tumor/tissue ratios Tumor” value ([4]; 4 mg/kg i.v., 24 hrs) was 1, the “tumor/tissue ratios Blood” value ([4]; 4 mg/kg i.v., 48 hrs) was 150 and the “tumor/tissue ratios Tumor” value ([4]; 4 mg/kg i.v., 48 hrs) was 1. For the same molecule, the “tumor to blood ratios” value ([4]; 4 mg/kg, 24-48 h after the conjugate was administered) was 141-151.
